The source of these data is publication PMC8006934 (2021).

Common to all, as to assay: SPR
In general terms: SPR reads the build-up and loss of mass on a sensor chip optically.

Assay [1] has as its target T1, FcγRIa, human, C-terminally biotinylated (human, UniProt P12314 16-292, biotin, C-terminal).
T1 chain: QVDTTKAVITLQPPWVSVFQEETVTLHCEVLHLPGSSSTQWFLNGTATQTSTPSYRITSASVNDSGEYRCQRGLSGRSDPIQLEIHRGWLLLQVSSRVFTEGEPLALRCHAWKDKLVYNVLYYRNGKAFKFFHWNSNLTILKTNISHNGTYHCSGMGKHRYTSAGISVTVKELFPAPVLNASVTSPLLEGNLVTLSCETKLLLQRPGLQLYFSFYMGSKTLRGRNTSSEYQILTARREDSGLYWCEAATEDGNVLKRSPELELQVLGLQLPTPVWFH

Assay [2] concerns the target T2, FcγRIIa-R131, human, C-terminally biotinylated (human, biotin, C-terminal).
T2 chain: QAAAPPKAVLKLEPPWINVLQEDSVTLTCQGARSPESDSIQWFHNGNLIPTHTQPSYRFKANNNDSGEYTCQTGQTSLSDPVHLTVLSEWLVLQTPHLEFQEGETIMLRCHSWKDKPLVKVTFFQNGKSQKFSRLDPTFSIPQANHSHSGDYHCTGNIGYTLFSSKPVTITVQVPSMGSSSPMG

The target in assay [3] is FcγRIIIa-F158, human, C-terminally biotinylated (human, UniProt P08637 17-208, biotin, C-terminal).
Chain of FcγRIIIa-F158, human, C-terminally biotinylated (P08637 17-208): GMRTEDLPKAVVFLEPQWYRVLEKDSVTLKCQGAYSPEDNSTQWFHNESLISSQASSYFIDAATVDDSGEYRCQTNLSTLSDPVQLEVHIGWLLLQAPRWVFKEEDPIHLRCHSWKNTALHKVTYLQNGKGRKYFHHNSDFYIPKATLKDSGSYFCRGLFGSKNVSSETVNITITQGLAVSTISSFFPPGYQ
Assay [4] concerns the target FcγRIIIa-V158, human, C-terminally biotinylated (human, UniProt P08637 17-208, p.176Val (V158), biotin, C-terminal).
Assay [5] deals with T3, FcγRIIa-H131, human, C-terminally biotinylated (human, UniProt P12318 34-217, biotin, C-terminal).
T3 chain: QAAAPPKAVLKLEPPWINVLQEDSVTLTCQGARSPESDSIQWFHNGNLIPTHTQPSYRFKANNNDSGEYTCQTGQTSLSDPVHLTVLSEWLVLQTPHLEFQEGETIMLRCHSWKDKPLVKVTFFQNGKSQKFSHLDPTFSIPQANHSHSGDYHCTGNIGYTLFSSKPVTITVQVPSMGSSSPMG

In general, Kd refers to a measure of binding affinity in units of concentration. Read a low Kd as a tighter complex.

Chain of FcγRIIIa-V158, human, C-terminally biotinylated (P08637 other isoform, or with tags, fused parts or gaps p.176Val (V158)): as the sequence (P08637 17-208) above, with F160V counted along it

B1: C-reactive protein (native CRP from human fluid) (natural protein)
chain: QTDMSRKAFVFPKESDTSYVSLKAPLTKPLKAFTVCLHFYTELSSTRGYSIFSYATKRQDNEILIFWSKDIGYSFTVGGSEILFEVPEVTVAPVHICTSWESASGIVEFWVDGKPRVRKSLKKGYTVGAEASIILGQEQDSFGGNFEGSQSLVGDIGNVNMWDFVLSPDEINTIYLGGPFSPNVLNWRALKYEVQGEVFTKPQLWP
As to B1, the Kd in assay [1] worked out at 3.4 µM; in assay [2], 4.6 µM; in assay [3] it was 4.9 µM; in assay [4], 4.4 µM; in assay [5] it was 4.5 µM.
